Several values for one entry are separate records, joined by “and”; a condition that tells them apart may be missing. Equal values may be shown once. Read-outs that look alike come from different tables or passages of the source.
Assays:
Experiment in all cases: AUC; sedimentation velocity, 40,000 rpm, 25°C, 2 mg/ml, 10 mM Tris, ~pH 7.0; c(s) model (SEDFIT)
[1] = molecular target: full-length recombinant mouse amelogenin (M180) (mouse)
[2] = molecular target: full-length recombinant mouse amelogenin (M180) (mouse); remark: listed apart in the source
[3] = molecular target: Amel-C (amelogenin C-terminal fragment, AA 86-180) (mouse)

| Substance | stoichiometry N [1] | stoichiometry N [2] | percent as larger aggregations [3] [%] | percent as tetramers [3] [%] | stoichiometry N [3] |
| --- | --- | --- | --- | --- | --- |
| full-length recombinant mouse amelogenin (M180) (natural protein) | 50 | 40 | – | – | – |
| Amel-C (amelogenin C-terminal fragment, AA 86-180) (domain or fragment) | – | – | 2 | 7.5 | 4 and 6 |

From PMC3184955
